What was measured:
[1] = target: 30SΔS1 ribosomal subunit (rS1-depleted);ribosomal protein rS1 (Escherichia coli JE28;Vibrio vulnificus CMCP6) (UniProt A0A3Q0L6Y6); experiment: MST; conditions: MST: 25 mM K-phosphate pH 7.2, 150 mM KCl, 5 mM MgCl2, 5 mM DTT, 0.4 mg/mL BSA, 0.05% Tween20, RNasin, 25 °C, EMSA: 25 mM K-phosphate pH 7.2, 75 mM KCl
[2] = target: rS1-depleted 30S ribosomes from E. coli (E. coli (endogenous in strain JE28)) (UniProt P0A7V0); experiment: MST; labeled 30SΔS1 (30 nM) with a 1:1 dilution series of rS1 (3 µM); 30 min at 25 °C; 25 mM potassium phosphate pH 7.2, 150 mM KCl, 5 mM MgCl2, 5 mM DTT, 0.4 mg/mL BSA, 0.05% Tween20, RNasin
ribosomal protein rS1 = ribosomal protein rS1 (Vibrio vulnificus CMCP6, UniProt A0A3Q0L6Y6 1-556); experiment: NMR; holo (adenine); 1:1 rS1 opens P4 and P5 by 50%; MST: 25 mM K-phosphate pH 7.2, 150 mM KCl, 5 mM MgCl2, 5 mM DTT, 0.4 mg/mL BSA, 0.05% Tween20, RNasin, 25 °C; EMSA: 25 mM K-phosphate pH 7.2, 75 mM KCl, 5 mM DTT, on ice; conditions: protein: recombinant; tags: N-terminal His-thioredoxin tag, cleaved by TEV; label: 13C,15N (NMR); riboswitch fold with helices P1-P5

## GCUUCAUAUAAUCCUAAUGAUAUGGUUUGGGAGUUUCUACCAAGAGCCUUAAACUCUUGAUUAUGAAGUCUGUCGCUUUAUCCGAAAUUUUAUAAAGAGAAGACUCAUGAAUUACUUUGACCUGCCG [ASW14-140, Cy5-labeled add riboswitch]
[1]
  Kd: 60 nM

## ribosomal protein rS1 from Vibrio vulnificus (from UniProt A0A3Q0L6Y6 1-556) (natural protein)
[2]
  Kd: 170 nM

B1: ASW14-140, add riboswitch (structured_RNA)
RNA: GCUUCAUAUAAUCCUAAUGAUAUGGUUUGGGAGUUUCUACCAAGAGCCUUAAACUCUUGAUUAUGAAGUCUGUCGCUUUAUCCGAAAUUUUAUAAAGAGAAGACUCAUGAAUUACUUUGACCUGCCG
Ribosomal protein rS1
  binding result: binds

From paper PMC8342710, “Switching at the ribosome: riboswitches need rProteins as modulators to regulate translation”
